The text below walks through data of patent US20090227528A1, “Pulmonary administration of an antithrombotic compound” (priority 2004, published 2009).

For data set [1] the following is noted: rabbit, in vivo; cited from earlier work.
For data set [2] the following is noted: in vivo; cited from earlier work.
The nature of data set [3]: Comparative study between intravenous and intratracheal administration of Org 42675 (plasma concentration via anti-Xa activity, amidolytic S2222). Format: in vivo, male Wistar rats. The following applies: male, Wistar, rat; for AUC(0-inf) / AUC(0-t) / Cmax / bioavailability: 100 nmol/kg; for bioavailability: other: intratracheal, 100 nmol/kg intratracheal vs i.v. (100%), read-out: F (% bioavailabilty). The procedure:
The test was carried out in male Wistar rats of 300-400 gr. The rats were anaesthetised by inhalation of a mixture of O2/N2O/isoflurane, after which the right jugular vein was cannulated. Translumination of the neck enabled visibility of the vocal cords and an oral needle was inserted when the vocal cords were open after which 100 μl/300 gr body weight of a solution prepared from the pharmaceutical formulation of Example 1, diluted with an aqueous 0.9% sodium chloride solution, containing 300 nmol of Org 42675/ml was instilled at approximately 1 cm before the bifurcation of the trachea. The same solution and dose was also used to perform the i.v. study. After i.v. administration blood was sampled at 1, 6, 15, 30 and 60 minutes and after 2, 4, 7 and 24 hours. After intra-tracheal administration blood was sampled at 0.5-1-2-4-7 and 24 hours after administration. Blood was centrifuged and the plasma was siphoned off and stored at −20° C. until use. The concentration of Org 42675 was measured amidolytically with S2222 (Chromogenix, Chromogenics Ltd, Molndal, Sweden) by determination of the anti-Xa activity based on the method of Teien and Lie in the obtained plasma samples against a calibration curve which was made of the stock solution of 300 nmol/ml itself. (Teien A N, Lie M. Evaluation of an amidolytic heparin assay method increased sensitivity by adding purified antithrombin III. Thromb. Res. 1977, 10: 399-410). The concentration in the samples was expressed in nmol/ml and the kinetic parameters were calculated with the noncompartment model of WinNonlin (see Tables 1 and 2). After intratracheal administration the maximum concentration was already obtained at 0.5 hour after administration which was also the first time point of blood collection.

The mark [4] stands for this setting: inhaled or intranasal, 100 nmol/kg intratracheal, individual rats.
The mark [5] stands for this setting: inhaled or intranasal, 100 nmol/kg intratracheal, mean (n=3).
Where [6] appears, read: iv, 100 nmol/kg intravenous, individual rats.
Setting [7] is: iv, 100 nmol/kg intravenous, mean (n=2).

Where two headings read alike, the source gives them in different places.

With heparin, in data set [1], the bioavailability entry is “low” and the pharmacokinetics result was “poor”. Also, the Absolute bioavailability in data set [2] was 35-60%.

On to `COc1cc(C)c(S(=O)(=O)NC(CC(=O)NCCCC(=O)NCCOCCOCCOCCO[C@H]2[C@H](OC)[C@@H](OC)[C@@H](O[C@H]3[C@H](OC)[C@@H](OC)[C@H](O[C@H]4[C@H](OS(=O)(=O)O)[C@@H](OS(=O)(=O)O)[C@@H](O[C@H]5[C@H](OC)[C@@H](OC)[C@H](O[C@H]6[C@H](OC)[C@@H](OS(=O)(=O)O)[C@@H](OC)O[C@@H]6COS(=O)(=O)O)O[C@H]5C(=O)O)O[C@@H]4COS(=O)(=O)O)O[C@@H]3C(=O)O)O[C@@H]2COS(=O)(=O)O)C(=O)NC(Cc2ccc(C(=N)N)cc2)C(=O)N2CCCCC2)c(C)c1C` (stereo partly drawn) [Org 42675], for which the time to peak (Tmax) in data set [3] (setting [4]) came out at 30 min. The AUC(0-inf) in data set [3] (setting [4]) turned out to be 5.53 µM·h; in data set [3] (setting [5]), 5.07 ± 0.24 µM·h; in data set [3] (setting [6]), 8.46 µM·h; in data set [3] (setting [7]), 7.32 ± 1.03 µM·h. Also, the AUC(0-t) turned out to be 5.4 µM·h in data set [3] (setting [4]), 4.91 µM·h in data set [3] (setting [5]), 8.35 µM·h in data set [3] (setting [6]) and 7.32 µM·h in data set [3] (setting [7]). For the same compound, the Cmax in data set [3] (setting [4]) was 640 nM; in data set [3] (setting [5]) it was 770 nM; in data set [3] (setting [6]), 3180 nM; in data set [3] (setting [7]), 2930 nM. The bioavailability in data set [3] (individual rats) is 75.5%; in data set [3] (mean (n=3)), 71 ± 3%.
